Laboratory results reported in US20230332166A1, “FORMATE-INDUCIBLE PROMOTERS AND METHODS OF USE THEREOF” (Imperial College Innovations Ltd, priority 2020, published 2023).

B1: Yali0A21353: putative Y. lipolytica FDH gene; promoter region SEQ ID NO: 2 (1 Kb) and 18 (1.5 Kb) (nucleic acid, listed as Yarrowia lipolytica)
DNA: ATGAAGGTCCTTCTTATTCTCTACGATGCCGGCTCCCACGCCAAGGACGAGCCCAAGCTGCTTGGATGCACCGAGAACGAGCTTGGTATTCGAGACTGGCTCGAGTCGCAGGGCCACACTCTCGTCACCACCTCTTCCAAGGACGGTGCCGACTCTGTGCTTGACAAGGAGATTGTTGACGCTGATGTAGTCATCACCACCCCGTTCCACCCCGGCTACATCAACAAGGAGCGAATTGACAAGGCCAAGAAGCTCAAGATCTGCATCACCGCCGGTGTCGGCTCCGACCACGTGGACCTCGATGCTGCCAACGCCCGAAACATTGCCGTTCTCGAGGTCACCGGCTCGAACGTCCAGTCCGTCGCTGAGCATGTTGTCATGACCATGCTGGTGCTGGTCCGAAACTTTGTCCCTGCCCACGAGCAGATTATTTCTGGCGGCTGGGACGTTGCTGCGGTTGCCAAGGACTCTTACGATCTCGAGGGCAAGGTCATCGGTACCGTTGGAGGCGGTCGAATCGGCCAGCGAGTGCTCAAGCGATGCAAGCCCTTTGACCCCATGGAGATGCTCTACTACGACTACCAGGCTATGCCAGCTGATGTGGAGAATGAGATTGGATGCCGACGAGTCGAGTCTCTGGAGGAGATGCTCTCTCTCTGTGACGTTGTAACCATCAACTGTCCTCTCCATGCCTCCACCAAGGGTCTCTTCAACAAGGAGCTCATTTCCCACATGAAGGACGGCGCTTGGCTCGTCAACACTGCTCGAGGAGCCATCTGCGTCACCGAGGACATTGTCGACGCTCTCGAGTCCGGCAAGATCCGAGGCTACGGTGGTGACGTCTGGTTCCCCCAGCCTGCCCCCAAGGACCACCCCTGGAGAACCATGCGAAACAAGTACGGCGGTGGAAACGCCATGACTCCCCATATCTCCGGTACTTCCATCGACGCCCAGGGCCGATACGCTGAGGGTACCAAGAAGATTCTTGAGGTCTTTTTCTCTGGCAAGCAGGATTACCGCCCCCAGGACATTATCTGCATCAACGGTCACTACGGTACCAAGGCTTACGGTGACGACAAGGAGCACAAGGCCCACGTTTCCAAGTAGCTGTTTAACTTATATAAGCAATTGACTGGATTTGATAACGA
modifications: YALI0A12353g
B2: Yali0C08074: putative Y. lipolytica FDH gene; promoter region SEQ ID NO: 5 (1 Kb) and 21 (1.5 Kb) (nucleic acid, listed as Yarrowia lipolytica)
DNA: ATGAAGGTCCTTCTTGTTCTTTACGATGCTGGCTCCCATGCCAAGGATGAGCCCAAGCTGCTTGGATGCACCGAGAACGAGCTCGGTATCAGAGACTGGCTCGAGTCTCAGGGACATACCCTTGTAACTACGTCTTCCAAGGACGGTGCCGACTCTGTCCTCGACAAGGAGATTGTCGATGCCGATGTAGTCATCACCACCCCCTTTCATCCTGGATACATCAACAAGGAGCGAATCGACAAAGCCAAGAAGCTCAAGATTTGCATCACTGCTGGTGTCGGCTCTGACCACGTCGATCTCGACGCTGCCAACGCCCGAGATATTGCTGTTCTCGAAGTCACCGGCTCCAATGTCCAGTCTGTTGCCGAGCACGTTATCATGACCATGTTGGTCCTGGTGCGAAACTTTGTCCCTGCTCACGAGCAGATCATCTCTGGCGGTTGGGACGTTGCTGCTGTTGCCAAGGACTCATACGATCTCGAGGGTAAGGTCATCGGCACCGTTGGAGGAGGCCGAATTGGCCAGCGAGTGCTCAAGCGATGCAAGCCCTTCGACCCCATGGAGATGCTCTACTACGACTATCAGGCCATGCCAGCTGACGTTGAGAAGGAGATTGGATGTCGTCGAGTCGAGTCTCTCGAGGAGATGCTCTCTCTTTGTGACGTGGTCACCATCAACTGCCCTCTGCACGCTTCCACCAAGGGCCTGTTCAACAAAGAGCTCATCTCGCACATGAAGGATGGTGCCTGGCTCGTTAACACCGCTCGAGGAGCCATTTGTGTCACCGAGGACATTGTCGAGGCTCTCGAGTCCGGTAAGATCCGAGGTTACGGCGGAGACGTTTGGTTCCCCCAGCCTGCCCCTAAGGACCACCCCTGGAGAACCATGCGAAACAAGTACGGGGGAGGAAACGCCATGACTCCTCATATCTCCGGAACTTCCATCGACGCCCAGGGCCGATATGCCGAGGGCACCAAGAAGATCCTTGAGGTTTTCTTTTCTGGAAAGCAGGATTATCGACCCCAGGACATTATCTGCATCAATGGTCACTACGGCACAAAAGCTTACGGAGATGACAAGGAGCACAAGGAGCACCAGCTCAAGTAAATATATATAGCTAGAAACATATCTCGTTGTTGCTT
modifications: YALI0C08074g

Tested on: Y. lipolytica JMY2900
Test: qPCR of putative FDH gene transcription upon induction with sodium formate
Type: cell-based, Yarrowia lipolytica
Conditions: YNB with 0.5% sodium formate, 6 h, 28° C., vs absence of formate; qPCR normalised to actin
Experimental: FIG. 3: Transcription levels of the FDH genes of Yarrowia lipolytica W29 measured by qPCR, normalised to actin (ACT1) expression. Yarrowia lipolytica was grown in YNB supplemented with 1% glucose and 0.5% yeast extract at 15 h at 28° C., before being washed and transferred into YNB with 0.5% of sodium formate for induction and grown for 6 h.
The inducibility of the putative FDH genes with formate was then tested by qPCR. YALI0E14256g1_1 and the nine putative FDH with the highest % identity to YALI0E14256g1_1 were selected for testing. Y. lipolytica JMY2900 was cultured in YNB media supplemented with 1% glucose and 0.5% yeast extract for 15 h at 28° C. Cells were washed with distilled water and cultured in fresh liquid YNB media supplemented with 0.5% sodium formate at 28° C. with agitation at 160 rpm, before being harvested at 6 h post-inoculated. Cells were frozen in liquid nitrogen and stored at −80° C. RNA was subsequently extracted using the RNeasy Mini Kit (Qiagen), and 2 μg was treated with DNAse (Ambion; Life Science Technologies, Saint-Aubain, France). cDNA was synthesised using the Maxima First Strand cDNA synthesis kit (Thermo Fischer Scientific, Villebon sur Yvette, France). qPCR was then performed using the SYBRgreen mastermix (Thermo Fischer Scientific) with gene-specific primers designed using Primer3 software. Relative expression levels were calculated using ΔCT and ΔΔCT methods. Expression levels were normalised to actin.

Molecule	Fold increase on induction (fold change expression of putative FDH genes upon induction with sodium formate)
B1	7.9 fold
B2	3.7 fold
